# Source: the DeepSol protein solubility set
# Assay: soluble on expression in E. coli; label from the status in PepcDB or PDB records
row,Sequence,soluble on expression in E. coli
1,MGKEKVHINIVVIGHVDSGKSTTTGHLIYKCGGIDKRTIEKFEKEAQEMGKGSFKYAWVLDKLKAERERGITIDIALWKFETAKYYITIIDAPGHRDFIKNMITGTSQADCAVLVVACGTGEFEAGISKNGQTREHALLAQTLGVKQLIVACNKMDSTEPPFSEARFTEITNEVSGFIKKIGYNPKAVPFVPISGFNGDNMLEVSSNMPWFKGWAVERKEGNASGKTLLEALDSIIPPQRPTDRPLRLPLQDVYKIGGIGTVPVGRVETGIIKPGMVVTFAPQNVTTEVKSVEMHHESLPEAVPGDNVGFNVKNVSVKDIRRGSVCSDSKQDPAKEARTFHAQVIIMNHPGQISNGYTPVLDCHTAHIACKFNELKEKVDRRTGKKVEDFPKFLKSGDAGIVELIPTKPLCVESFTDYAPLGRFAVRDMRQTVAVGVIKSVEKSDGSSGKVTKSAQKAAPKKK,not soluble
2,PRVVFIDEQSGEYAVDAQDGQSLMEVATQNGVPGIVAECGGSCVCATCRIEIEDAWVEIVGEANPDENDLLQSTGEPMTAGTRLSCQVFIDPSMDGLIVRVPLPA,soluble
3,MSLLLIVAGHDPTGAGLRADIATAEALGVPAVSLPTLLSLQDEGVELVEPVDSRFMSDCLARYVPRCEVVKVGAVPTLKTFEILAKRLRDLTVVWDPVFRAEAGGELSEATPEEALETFGETVDILTPNTEELSQLVGREVRTTVEAELAARELVEEYGLTGVLVTGGHSVDRRDVWVPAEGNTIAWEVPPGEGAHGSGCVLSTALACFLVRGLDPETAVERAVRFARAAVREARNTPFGRVADPVAQIRRDATLGKATQHVIRALEIIESDPAFARAIPQVGMNVAEVFDPSRGLEGVVGLSGRIVLDGDRPTAVGRPVPGGSKHVGTVALTAHRLDPSVRAAVNARYDEELIERARDLGFVVSSFDRSEEPEEVDSTMEWGTEVAFRRADDTPDVVYDEGDVGKEPMIRVLGKSAVEAVTKLRMLLGCVVGEGHHHHHH,soluble
4,MRAEDLFNDPKSYKRWYELHSKLYENERNVVRSFNLKDCLDVGSGPDIFHEEIGGRIVALDISLLMLKESKSDEKVLADALHLPFRDNSFKCVFSSVTVCFIEDVKGFIREMARITKERAIICFIARDSPWGEYYENLGKSGHKYYSHARFISRREFYVIINDFMKISRIRSTLKKMSETEIDGVYNDDSGSFICVEAIPMKPEPLSLSLNRHSGADPADPIS,not soluble
5,MRRTLVVPDVLLLGTLLAGLLLLSGCEGDYRPRAVGPIGEITVVMDSSHWTGPSGEALRANVTPWVETLPVSERSFQLRHLELTDERTYERVQDLKNVIIAAPLSDSTNETSFLRRRLSDEAEQAILDGQTAVVPKPNLWRRSQRIYYVAAASPDALAETFQSQGTQIRDTFTEATLQRMDRNMYEDDRRSALEDTLMQRHGFAVNMQSDFQIAVDTTTGSEGFVWLRRLLAQTRREFFVYYVEDVSPDQITPEWIYNTRDSLTRRHLRGNVRGFAKIDYRRPLKTEQRSFLDRYAYDSRGLWYMVAPLGGGNELRPVGGGGPFVNYTFYDQATDRVYMLDGSIFAPDNDKIDLLRQMEVMARTFRTAEGSRSPDASPTAAKLEHHHHHH,not soluble
6,GPGSMSVSATPYKRQDAITAKTVLLGESAVGKSSIALRFARNEFSSNQETTIGAAFLSRSVTVSATSQSGGGGAVANAASGTIKFEIWDTAGQERYRSLAPIYYRGACGALVVYDITSAESLKKAQMWMRELRANADPTLLIILVGNKKDMESLRQVSYEDGAAVAQEEDVNGFFEVSAKENVNVEEVFAKLARLLLEHGLGANSGPGSLSGPRGAQRLEPPTRQQKKEGGCAC,not soluble
7,RMTVWQLDLQKRLVQVDGDVARLIGLSHVPPELPVAVFENYVDPEDLPLLRAAEAAALRGEPMQVELRLVLESGGRRWLRLMGEPRPDA,not soluble
8,MGSSHHHHHHSSGLVPRGSHMTVYTASVTAPVNIATLKYWGKRDTKLNLPTNSSISVTLSQDDLRTLTSAATAPEFERDTLWLNGEPHSIDNERTQNCLRDLRQLRKEMESKDASLPTLSQWKLHIVSENNFPTAAGLASSAAGFAALVSAIAKLYQLPQSTSEISRIARKGSGSACRSLFGGYVAWEMGKAEDGHDSMAVQIADSSDWPQMKACVLVVSDIKKDVSSTQGMQLTVATSELFKERIEHVVPKRFEVMRKAIVEKDFATFAKETMMDSNSFHATCLDSFPPIFYMNDTSKRIISWCHTINQFYGETIVAYTFDAGPNAVLYYLAENESKLFAFIYKLFGSVPGWDKKFTTEQLEAFNHQFESSNFTARELDLELQKDVARVILTQVGSGPQETNESLIDAKTGLPKE,soluble
9,MGEQPIFTTRAHVFQIDPNTKKNWMPASKQAVTVSYFYDVTRNSYRIISVDGAKVIINSTITPNMTFTKTSQKFGQWADSRANTVFGLGFSSEQQLTKFAEKFQEVKEAAKIAKDKTQEKIETSSNHSQASSVNGTDDEKASHAGPANTHLKSENDKLKIALTQSAANVKKWEIELQTLRESNARLTTALQESAASVEQWKRQFSICRDENDRLRNKIDELEEQCSEINREKEKNTQLKRRIEELEAELREKETELKDLRKQSEIIPQLMSECEYVSEKLEAAERDNQNLEDKVRSLKTDIEESKYRQRHLKVELKSFLEVLDGKIDDLHDFRRGLSKLGTDN,not soluble
10,MGSDKIHHHHHHMNNQVKRRKTKAVNVGKVQVGGGAPVAVQSMTCTDTRNVRETIEQIEALEKAGCEIVRVAVPDAEAASVLGKIKKSISIPLIADIHFNHHYALMAIEQDVDGIRINPGNVGKKNIAEIVRAAKDHNTVIRIGVNAGSLEKELQEKHGGPTAHALTESALNNLAFVEDMGFDRIKLSLKSSHVPTMIDAYRLVADKTDYPLHLGVTEAGTLVTSAVKSSIGMGLLLHEGIGDTIRVSVTGSPVLEIGIAYDILRALDIRRVGPDIISCPTCGRCEIDLFGLVEQVEHSLSGMKDYMKIALMGCVVNGPGEAAEADVGIAGGRGMGLLFKKGQVIRKIREEEFVKALLQEIQEMTGE,not soluble
11,MSLRTLYSGGLVFDGIGNLLEQHGVLVDGQKICRIAPLGEFEGFSDEKVDTSDGTLLPGLIDCHVHIVYSGEADPKSHLLKLRPGQIVINALENAKKTLSNGITSIRDLGGRDFLEFAVRDACNSGRQTGPTIRAAGRMICMTGGHGNAFGRVADGPDEVLKAVREQIHAGSDVIKLMATGGVMTPGVNPEDAHYSEEELRVGVNEGHRFNRKCASHAQGSAGILNAVNAGMDSIEHGIFMTQESLESMLKHQTYLVPTLSAVNNIYLNRDNGIPEFIVEKTLRIRERHHQSIKMFYKAGGKMAMGTDAGTPFNLHGENTNELQYMVDLGVSNLDVLKISTVNAADLMDLEDRGIIQEGFYADFLIVNGDPVKDISKVADRKNHRIVVKNGVHINEGHHHHHH,soluble
12,MLEFFDEDFDNMALVEGALELNKSVNPETNVHWAKQELERLYQEAEATLIHETDEEQRFDSFLRLFFHEWGFKGDDQEYFISDNSFIDKVLERKKGIPVSLGAILLYLGNRLGFPMKGVTFPTQFLIKVDWMHKTPDYINPFNGEYVGEKILQAWLIGQEGPLAQLKPEHFDEADNPTVIGRWLALIKSAMLREERYTLALRCTNLALTFVPDDPYEIRDRGFIFQQLECHQVAVSDFQYFIDQCPDDPASELLKSQVNAMSEKHVTLHLEHHHHHH,soluble
13,MGSDKIHHHHHHMPRLIVLNDNTPSRGLINDWGWSILIEGRERFLFDADTNPLVLAHNSKVLNVNLRNLDFAVLSHWHYDHYGGFEYIAELNPGIKFYAPPQGLALAMRWGFQPIAINFGGKIEEEVYTSGVIDGIEQAIGLETSSGLVVIVGCSHPGVDRMVEEVLKVSGYEKAYLVIGGFHSPPIHRLRNLARLSELIAPAHCSGDVAKAFIKRNYKEKYVDVKTGTILEI,not soluble
14,MPINAAYRGPADLPEVIPVFPLAGALLLPRGQMPLNIFEPRYLAMIDDALRDGHRLIGMIQPDAAHSSETAEKPSLFNVGCVGRITQLAESGDGRYILELTGVSRFKVVDELQVLTPYRQCKVDYFPFGDDFTARKGEDEVDRETLLSVLTDFLKANNLKVDWDGVESAPNEALVNALAMMSPYGPPEKQALLEAPDLKTRAEILIAVTEMDLAKKRTSGDPPLQLEHHHHHH,not soluble
15,MGSDKIHHHHHHMEGKVKKAFPGGNTSQGSYSFFDYIIPENVKRVFCLKGGPGVGKSSLMKKIYKEFLHRGYDIDLYHCPSDPSSLDGLVIKKLGVVLMDATAPHTMDPKLPGALDEIINLGDYWNTEELEKNKQEISVYDKDISNSFKRAFKFLKSAEPIFRDIEEKYSDCMDYGKVNLVTEEFIKRLFDGVKSTGNLKREKHLFGSAITPVGCLDYTENILKDVKKVYYLDGEIGTGKTTLLNKVYKKAIEKGLNVEVYHYPLIPEKIETVLLTDLDIGITISTTFKEEDTIDLNQFLNREKLLKYEEDIKFDEKVLDDLICWAVLNLKRAKSKHDIIESYYSPNMRFDEVGKLRDKLIKRILKYEENL,not soluble
16,MTTSGHACPVPAVNGHMTHYPATPYPLLFPPVIGGLSLPPLHGLHGHPPPSGCSTPSPATIETQSTSSEELVPSPPSPLPPPRVYKPCFVCQDKSSGYHYGVSACEGCKGFFRRSIQKNMIYTCHRDKNCVINKVTRNRCQYCRLQKCFEVGMSKESVRNDRNKKKKETSKQECTESYEMTAELDDLTEKIRKAHQETFPSLCQLGKYTTNSSADHRVRLDLGLWDKFSELATKCIIKIVEFAKRLPGFTGLTIADQITLLKAACLDILILRICTRYTPEQDTMTFSDGLTLNRTQMHNAGFGPLTDLVFTFANQLLPLEMDDTETGLLSAICLICGDRQDLEEPTKVDKLQEPLLEALKIYIRKRRPSKPHMFPKILMKITDLRSISAKGAERVITLKMEIPGSMPPLIQEMLENSEGHEPLTPSSSGNTAEHSPSISPSSVENSGVSQSPLVQ,soluble
17,MAIEIKLETPRQEAVLRLIDLSNAYMASLYPAESNHLVDIGALEKDNVSFFVARHDGRVVGCGALVEAGDGTAEVKRMFVDPEARGLRIGKLIMDTLVARGTELGLSAIRLETGISQPEAIGLYRKEGFVEIEAFAPYKPDPLSLFMERAL,not soluble
18,MTAHFRPAVYDLPRDGHTVFRWEHPPQQATVELERLQRKQSLAAAFRVFARLGFDMGGAGHITVRDPGRPDHFWVNPVGVYFGHVRVRDLLLVNPEGAVIEGEGALNLAAFAIHAALHEAHPEVVAAAHAHSLYGKAWSSLGRLLDPLTQDACAFYERHGLFDNFSGVVLEASEGVRIAAALAGRKALILQNHGLLTVGETVEAAVWRFIAMDNAAQTQLLAEAAGTPRPIPHEVARHTARQVGTEFGGWFSFQPYRERIVREEPDFLDLEHHHHHH,not soluble
19,SSKALLALKSQVEKRKAELQTQNRTKKWKRIGDQWKEEDKIQEQETFLEAHSPIESKQENGTETSNKEPPLLKEEVIERLRAWEQPATLFGETDYERYIRLRDLELRNSEESKGQRNIFQQKLRQFKEKDELENFYRVTEMELPSKGSAAQKVKEEIYAAEEGPEFFKTPEEYCFRYMRRLLKMWKAEVEQLDEETKRTSLGRKTLATFEQTKEYLKPLFRKLKKQQLDKSILTSLEKILRYVEQREYVLANDEYLRLAIGNAPWPVGATMVGIHARTAREKISEGKIAHVMNDEETRKYIQAVKRLITLSQKWYPTVPSKMVVG,soluble
